In doi:10.64898/2025.12.30.697096 (bioRxiv, 2025):
No end group written: not given here. *: point of attachment. MTSL = nitroxide spin label, CC1(C)C=C(CS*)C(C)(C)N1[O]

B1: Glu3-tagged Bax α9 peptide (Bax residues Gly166 to Gly192) (peptide, UniProt Q07812 166-192, looked up)
chain: GTPTWQTVTIFVAGVLTASLTIWKKMG

Legend:
cross-linking = target: the molecule itself; assay: cross-linking
[1] = target: B1; assay: NMR paramagnetic relaxation enhancement

Row | binding result [1] | Binder | stoichiometry N (cross-linking)
1 | – | B1 | 2
2 | binds | GTPTWQC(MTSL)VTIFVAGVLTASLTIWKKMG (peptide, UniProt Q07812 166-192, looked up) [Bax (α9) T172C with MTSL spin probe] | –
3 | binds | GTPTWQTVTIFVAGVLTASLTIC(MTSL)KKMG (peptide, UniProt Q07812 166-192, looked up) [Bax (α9) W188C with MTSL spin probe] | –
4 | binds | GTPTWQTVTIFVAC(MTSL)VLTASLTIWKKMG (peptide, UniProt Q07812 166-192, looked up) [Bax (α9) G179C with MTSL spin probe] | –
